Laboratory results from publication PMC7164768.

Target: Thermotoga maritima SecYEG complex, Se-Met derivatized (Thermotoga maritima) (UniProt Q9X1I9)
Experiment: crystal structure

Thermotoga maritima SecYEG complex, Se-Met derivatized (Thermotoga maritima), sequence (Q9X1I9 whole entry, chain 1 of 3): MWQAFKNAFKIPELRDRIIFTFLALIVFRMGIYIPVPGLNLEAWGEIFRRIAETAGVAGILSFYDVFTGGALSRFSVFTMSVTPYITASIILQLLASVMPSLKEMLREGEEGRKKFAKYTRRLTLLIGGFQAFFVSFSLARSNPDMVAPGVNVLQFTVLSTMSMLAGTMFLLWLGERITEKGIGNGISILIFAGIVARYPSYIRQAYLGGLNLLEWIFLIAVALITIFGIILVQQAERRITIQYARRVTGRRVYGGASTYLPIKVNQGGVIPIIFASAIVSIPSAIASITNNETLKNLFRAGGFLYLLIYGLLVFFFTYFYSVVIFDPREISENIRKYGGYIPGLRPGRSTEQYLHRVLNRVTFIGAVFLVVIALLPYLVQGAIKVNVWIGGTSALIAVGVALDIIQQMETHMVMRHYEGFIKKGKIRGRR
Thermotoga maritima SecYEG complex, Se-Met derivatized (Thermotoga maritima), sequence (P35874 whole entry, chain 2 of 3, further chain): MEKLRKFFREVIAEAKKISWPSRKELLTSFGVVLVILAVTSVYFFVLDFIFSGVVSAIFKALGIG
Thermotoga maritima SecYEG complex, Se-Met derivatized (Thermotoga maritima), sequence (Q9WYU9 whole entry, chain 3 of 3, further chain): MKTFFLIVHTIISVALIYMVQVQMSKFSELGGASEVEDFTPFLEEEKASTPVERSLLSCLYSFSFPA

stoichiometry N (SecA per SecY complex): 1
Substance: Thermotoga maritima SecA (from UniProt Q9X1R4 1-871) (enzyme)
